Measurements reported in patent publication US20120134993A1 (ZymoGenetics, published 2012).
Blank lines part the entries; values can stand above or below the binder they belong to.

B2: recombinant human FGF-8b (ligand, UniProt P55075-3 23-215, looked up)
chain: QVTVQSSPNFTQHVREQSLVTDQLSRRLIRTYQLYSRTSGKHVQVLANKRINAMAEDGDPFAKLIVETDTFGSRVRVRGAETGLYICMNKKGKLIAKSNGKGKDCVFTEIVLENNYTALQNAKYEGWYMAFTRKGRPRKGSKTRQHQREVHFMKRLPRGHHTTEQSLRFEFLNYPPFTRSLRGSQRTWAPEPR
B3: recombinant human FGF-17 (ligand, UniProt O60258 23-216, looked up)
chain: TQGENHPSPNFNQYVRDQGAMTDQLSRRQIREYQLYSRTSGKHVQVTGRRISATAEDGNKFAKLIVETDTFGSRVRIKGAESEKYICMNKRGKLIGKPSGKSKDCVFTEIVLENNYTAFQNARHEGWFMAFTRQGRPRQASRSRQNQREAHFIKRLYQGQLPFPNHAEKQKQFEFVGSAPTRRTKRTRRPQPLT

Key:
recombinant human FGF1 = recombinant human FGF1 (human, UniProt P05230 16-155); assay: cell-based or functional assay
Chain of recombinant human FGF1 (P05230 16-155 limits assumed): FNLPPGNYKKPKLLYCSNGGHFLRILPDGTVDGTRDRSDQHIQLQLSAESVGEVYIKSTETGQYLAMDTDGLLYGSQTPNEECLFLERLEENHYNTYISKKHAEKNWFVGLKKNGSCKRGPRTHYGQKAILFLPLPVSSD

recombinant human FGF2 = recombinant human FGF2 (human, UniProt P09038 143-288, limits assumed); assay: cell-based or functional assay
Chain of recombinant human FGF2 (P09038 143-288 limits assumed): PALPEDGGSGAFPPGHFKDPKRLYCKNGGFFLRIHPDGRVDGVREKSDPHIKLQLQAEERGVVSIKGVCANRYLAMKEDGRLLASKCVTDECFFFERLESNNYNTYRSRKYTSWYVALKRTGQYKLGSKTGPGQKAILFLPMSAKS

recombinant human FGF4 = target: T1, recombinant human FGF4 (human, UniProt P08620 31-206, limits assumed); assay: cell-based or functional assay
T1 sequence (looked up): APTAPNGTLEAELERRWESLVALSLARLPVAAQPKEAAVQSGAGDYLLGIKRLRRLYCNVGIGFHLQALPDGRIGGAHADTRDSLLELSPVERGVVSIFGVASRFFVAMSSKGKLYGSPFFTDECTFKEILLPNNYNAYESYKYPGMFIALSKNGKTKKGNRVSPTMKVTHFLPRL

recombinant human FGF6 [1] = target: T2, recombinant human FGF6 (human, UniProt P10767 83-208, limits assumed); assay: cell-based or functional assay
T2 sequence (looked up): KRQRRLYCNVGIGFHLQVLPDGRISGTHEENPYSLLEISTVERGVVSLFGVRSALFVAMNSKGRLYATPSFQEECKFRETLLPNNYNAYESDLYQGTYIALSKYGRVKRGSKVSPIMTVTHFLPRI

recombinant human FGF-8b [2] = target: B2; assay: cell-based or functional assay
human FGF-9 = human FGF-9 (human, UniProt P31371 4-208); assay: cell-based or functional assay
recombinant human FGF-17 [3] = target: B3; assay: direct binding ELISA, FGF-17 coated, FGFR-Fc titrated with heparin, anti-human Fc-HRP
Method: (§1) To determine the binding capability of FGFR-Fc to their respective ligands, an ELISA was run. Recombinant human FGF-8b or FGF-17 (R&D Systems) was plated at 100 nM on a Nunc Maxisorp 96-well plate for 1 h at room temperature with shaking. The plates were blocked with BLOTTO (Thermo Fisher Scientific, Rockford, Ill.) for 1 h at room temperature, then washed 5 times with ELISA C buffer (137 mM NaCl, 2.7 mM KCl, 7.2 mM Na₂HPO₄, 1.5 mM KH₂PO₄, 0.05% (v/w) polysorbate 20, pH 7.2). FGFR-Fcs were diluted to 100 nM with PBS/0.1×BLOTTO/10 ug/ml porcine heparin (Sigma, St. Louis, Mo.) and then 1:2 serial dilutions were made, ending at 0.10 nM. 100 μL of FGFR-Fcs were plated and incubated at 4° C. overnight. The following day, the plates were washed 5 times with ELISA C and then incubated with 2.5 μg/mL horseradish peroxidase-conjugated anti-human Fc antibody (Jackson ImmunoResearch Laboratories, West Grove, Pa.) for 1 h at room temperature with shaking. After 5 washes with ELISA C, 100 μL of OPD in citrate buffer (5 mg of o-phenylenediamine in 63 mM sodium citrate, 37 mM citric acid, pH 5.0, 0.03% H₂O₂) was added for detection. After 2-5 minutes, the reaction was stopped with 1 N H₂SO₄. The plates were read at 490 nm using SoftMaxPro software.

recombinant human FGF-8b [4] = target: B2; assay: direct binding ELISA, FGF-8b coated, FGFR-Fc titrated with heparin, anti-human Fc-HRP
Method: as §1

recombinant human FGF6 [5] = target: T2, recombinant human FGF6; assay: SPR (Biacore T100), FGFR-Fc captured on protein A, FGF6 analyte with heparin, bivalent analyte model (KA1)
Method: (§2) Materials and Methods: Binding kinetics and affinity studies were performed on a Biacore T100™ system (GE Healthcare, Piscataway, N.J.). Methods for the Biacore T100™ were programmed using Biacore T100™ Control Software, v 2.0. Since each of the FGF receptor molecules contained a human Fc domain, biotinylated protein-A (Thermo Fisher Scientific Inc, Rockford, Ill.) was used as a capture reagent for these studies. Biotinylated protein-A was diluted to concentration of 50 μg/mL in HBS-EP buffer (10 mM HEPES, 150 mM NaCl, 3 mM EDTA, 0.05% Surfactant P20; GE Healthcare, Piscataway, N.J.), and then captured to all four flow cells of a SA (streptavidin) sensor chip. A density of approximately 1100 RU was obtained for each flow cell. Each FGF receptor molecule was subsequently captured via protein-A onto a separate flow cell of the SA chip at an approximate density of 150-250 RU. The Biacore instrument measures the mass of protein bound to the sensor chip surface, and thus, capture of the receptor was verified for each cycle.
(§3) For kinetic binding studies, serial 1:5 dilutions of FGF ligands were prepared from 200 nM-0.06 nM. These samples were injected over the surface and allowed to specifically bind to the FGF receptor captured on the sensor chip. Injections of each ligand concentration were performed with an association time of 7 minutes and dissociation time of 15 minutes. Kinetic binding studies were performed with a flow rate of 50 μL/min. All binding experiments were performed at 25° C. in HBS-P buffer (10 mM HEPES, 150 mM NaCl, 0.05% Surfactant P20, pH 7.4; GE Healthcare, Piscataway, N.J.), containing 50 μg/mL heparin (Calbiochem, La Jolla, Calif.).
(§4) Between cycles, the flow cell was washed with 20 mM hydrochloric acid to regenerate the surface. This wash step removed both the captured FGF receptor and any bound FGF ligand from the protein-A surface, and allowed for the subsequent binding of the next test sample. Data was compiled using the Biacore T100™ Evaluation software (version 2.0). Data was processed by subtracting reference flow cell and blank injections. Baseline stability was assessed to ensure that the regeneration step provided a consistent binding surface throughout the sequence of injections. Duplicate injection curves were checked for reproducibility. Binding curves were globally fit to the bivalent analyte model.

recombinant human FGF6 [6] = target: T2, recombinant human FGF6; assay: SPR (Biacore T100), FGFR-Fc captured on protein A, FGF6 analyte with heparin, bivalent analyte model (KD1)
Method: as §2, §3, §4

recombinant human FGF6 [7] = target: T2, recombinant human FGF6; assay: SPR (Biacore T100), FGFR-Fc captured on protein A, FGF6 analyte with heparin, bivalent analyte model (ka1)
Method: as §2, §3, §4

recombinant human FGF6 [8] = target: T2, recombinant human FGF6; assay: SPR (Biacore T100), FGFR-Fc captured on protein A, FGF6 analyte with heparin, bivalent analyte model (kd1)
Method: as §2, §3, §4

[9] = target: T3, human FGFR4-Fc (R&D Systems) (human, UniProt P22455 22-369); assay: ELISA: FGF-8b coated at 100 nM, FGFR-Fc 100 to 0.10 nM in 1:2 steps with 10 ug/ml heparin, anti-human Fc-HRP, OD 490 nm
T3 construct: Bought; also called FGFR4 (R&D systems); R&D FGFR4; not shown: Fc of the commercial fusion; not described
Method: as §1

[10] = target: T3, human FGFR4-Fc (R&D Systems); assay: ELISA: FGF-17 coated at 100 nM, FGFR-Fc 100 to 0.10 nM in 1:2 steps with 10 ug/ml heparin, anti-human Fc-HRP, OD 490 nm
Method: as §1

recombinant human FGF-17 [11] = target: B3; assay: as above
Method: as §1

IC50, FGF-stimulated HUVEC proliferation (3H-thymidine) (recombinant human FGF1): 0.82 nM | IC50, FGF-stimulated HUVEC proliferation (3H-thymidine) (recombinant human FGF2): 1 nM | IC50, FGF-stimulated HUVEC proliferation (3H-thymidine) (recombinant human FGF4): 0.74 nM | IC50, FGF-stimulated HUVEC proliferation (3H-thymidine) (recombinant human FGF6 [1]): 0.95 nM | Proliferation IC50, FGF8b-stimulated LNCap cells (3H-thymidine) (recombinant human FGF-8b [2]): 0.01 nM | Proliferation IC50, FGF-9-stimulated HCO osteoblasts (3H-thymidine) (human FGF-9): 0.84 nM | IC50 (recombinant human FGF-17 [3]): 8.66 nM | IC50 (recombinant human FGF-8b [4]): 37.7 nM | Ka (recombinant human FGF6 [5]): 1e+09 M⁻¹ | Kd (recombinant human FGF6 [6]): 0.8 nM | kon (recombinant human FGF6 [7]): 600000 M⁻¹ s⁻¹ | koff (recombinant human FGF6 [8]): 0.0005 s⁻¹
B1: FGFR3IIIc(23-375)(S249W) Fc5, full-length FGFR3-Fc S249W (A2256F) (Fc fusion)
chain: ESLGTEQRVVGRAAEVPGPEPGQQEQLVFGSGDAVELSCPPPGGGPMGPTVWVKDGTGLVPSERVLVGPQRLQVLNASHEDSGAYSCRQRLTQRVLCHFSVRVTDAPSSGDDEDGEDEAEDTGVDTGAPYWTRPERMDKKLLAVPAANTVRFRCPAAGNPTPSISWLKNGREFRGEHRIGGIKLRHQQWSLVMESVVPSDRGNYTCVVENKFGSIRQTYTLDVLERWPHRPILQAGLPANQTAVLGSDVEFHCKVYSDAQPHIQWLKHVEVNGSKVGPDGTPYVTVLKTAGANTTDKELEVLSLHNVTFEDAGEYTCLAGNSIGFSHHSAWLVVLPAEEELVEADEAGSVYAGEPKSSDKTHTCPPCPAPEAEGAPSVFLFPPKPKDTLMISRTPEVTCVVVDVSHEDPEVKFNWYVDGVEVHNAKTKPREEQYNSTYRVVSVLTVLHQDWLNGKEYKCKVSNKALPSSIEKTISKAKGQPREPQVYTLPPSRDELTKNQVSLTCLVKGFYPSDIAVEWESNGQPENNYKTTPPVLDSDGSFFLYSKLTVDKSRWQQGNVFSCSVMHEALHNHYTQKSLSLSPGK
notes: also called FGFR3 A2256F; FGFR3A2256F

Binder: B2
binding result [9]: binds

Binder: B3
binding result [10]: binds

binding result (recombinant human FGF-17 [11]): no binding (tested: 100 nM)
B4: FGFR2alphaIIIc(145-377) Fc5, truncated FGFR2-Fc (A2559F) (Fc fusion)
chain: SENSNNKRAPYWTNTEKMEKRLHAVPAANTVKFRCPAGGNPMPTMRWLKNGKEFKQEHRIGGYKVRNQHWSLIMESVVPSDKGNYTCVVENEYGSINHTYHLDVVERSPHRPILQAGLPANASTVVGGDVEFVCKVYSDAQPHIQWIKHVEKNGSKYGPDGLPYLKVLKAAGVNTTDKEIEVLYIRNVTFEDAGEYTCLAGNSIGISFHSAWLTVLPAPGREKEITASPDYLEEPKSSDKTHTCPPCPAPEAEGAPSVFLFPPKPKDTLMISRTPEVTCVVVDVSHEDPEVKFNWYVDGVEVHNAKTKPREEQYNSTYRVVSVLTVLHQDWLNGKEYKCKVSNKALPSSIEKTISKAKGQPREPQVYTLPPSRDELTKNQVSLTCLVKGFYPSDIAVEWESNGQPENNYKTTPPVLDSDGSFFLYSKLTVDKSRWQQGNVFSCSVMHEALHNHYTQKSLSLSPGK
notes: also called FGFR2A2559F; FGFR2 A2559F

binding result (recombinant human FGF-17 [11]): no binding (tested: 100 nM)
B5: FGFR2alphaIIIc(145-377)(P253R) Fc5, truncated FGFR2-Fc P253R (A2561F) (Fc fusion)
chain: SENSNNKRAPYWTNTEKMEKRLHAVPAANTVKFRCPAGGNPMPTMRWLKNGKEFKQEHRIGGYKVRNQHWSLIMESVVPSDKGNYTCVVENEYGSINHTYHLDVVERSRHRPILQAGLPANASTVVGGDVEFVCKVYSDAQPHIQWIKHVEKNGSKYGPDGLPYLKVLKAAGVNTTDKEIEVLYIRNVTFEDAGEYTCLAGNSIGISFHSAWLTVLPAPGREKEITASPDYLEEPKSSDKTHTCPPCPAPEAEGAPSVFLFPPKPKDTLMISRTPEVTCVVVDVSHEDPEVKFNWYVDGVEVHNAKTKPREEQYNSTYRVVSVLTVLHQDWLNGKEYKCKVSNKALPSSIEKTISKAKGQPREPQVYTLPPSRDELTKNQVSLTCLVKGFYPSDIAVEWESNGQPENNYKTTPPVLDSDGSFFLYSKLTVDKSRWQQGNVFSCSVMHEALHNHYTQKSLSLSPGK
notes: also called FGFR2 A2561F; construct #1950
